Measurements published in the supplement of paper PMC10724198.
± gives the standard deviation of the averaged measurements.

tested on: Saccharomyces cerevisiae; assay: protein stability index of tFT-peptide fusion (C-terminal peptide) (PSI (0-1 scale)); higher = more stable (slower turnover); conditions: genetic background: wild type; temperature: 30 C
Experimental: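 Multiplexed protein stability (MPS) profiling in S. cerevisiae. Random 12-aa peptides (tFT-X12 library) are fused to the C-terminus of a sfGFP-mCherry tandem fluorescent timer, after mCherry and a GGGS linker. Cells are FACS-sorted into 8 mCherry/sfGFP bins and deep-sequenced. The protein stability index (PSI) is the read-weighted bin average, scaled from 0 (unstable) to 1 (stable). Only peptides with >10 reads are reported; cells were grown at 30 °C in SC-His with glucose.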
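Further: PSI is a weighted mean of sequencing reads over stability bins, variants kept only with over 10 reads, mCherry proximal and sfGFP distal, peptide attached via GGGS linker.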

| Sequence | protein stability index |
| --- | --- |
| GVGWWLGLGVIW | 0.692 ± 0.029 |
| GVIYFSLSSFPL | 0.655 ± 0.14 |
| GVLGGAGCGVVL | 0.731 ± 0.023 |
| GVLPYRYRGLVL | 0.64 ± 0.16 |
| GVLRAWARLWGN | 0.599 ± 0.039 |
| GVLRICFGGLVS | 0.729 ± 0.031 |
| GVLRIRIGLGRG | 0.653 ± 0.028 |
| GVLRPLVGALGM | 0.609 ± 0.0083 |
| GVNMGKIYKIRN | 0.649 ± 0.03 |
| GVPPFAPPPPPH | 0.703 ± 0.015 |
| GVPPTPTHPCTC | 0.758 ± 0.072 |
| GVPYSPKSHRDH | 0.643 ± 0.047 |
| GVRERSCIKKAR | 0.604 ± 0.058 |
| GVRGVSHMDGGD | 0.758 ± 0.16 |
| GVSAPRFPGALA | 0.69 ± 0.01 |
| GVSLREASVAAI | 0.7104 ± 0.0055 |
| GVSVICGFPVSC | 0.732 ± 0.056 |
| GVSWSWGDLAVL | 0.756 ± 0.016 |
| GVTGGGVVNRGV | 0.689 ± 0.088 |
| GVVIGWAGYKGT | 0.671 ± 0.043 |
| GVVLDVRCVGLF | 0.661 ± 0.021 |
| GVVRSSRRYSFR | 0.705 ± 0.034 |
| GVVSRGGRRLGV | 0.7011 ± 0.0035 |
| GVWPWWGWSCCF | 0.782 ± 0.1 |
| GVYNGGIPQVLQ | 0.6843 ± 0.0028 |
| GVYSVACVSGSV | 0.64 ± 0.014 |

| Sequence | protein stability index |
| --- | --- |
| GWAFGVRGMIKK | 0.74 ± 0.043 |
| GWAVGGGGGRGR | 0.617 ± 0.057 |
| GWCAPLGLLLVL | 0.539 ± 0.031 |
| GWCGGLWRFGWG | 0.723 ± 0.092 |
| GWDCKGNDCWNG | 0.693 ± 0.055 |
| GWDQSGVVFVCG | 0.605 ± 0.017 |
| GWDSGHLVVMEI | 0.715 ± 0.033 |
| GWESERWSTLHK | 0.763 ± 0.024 |
| GWEVGGGRLGVV | 0.716 ± 0.11 |
| GWGCGGGGAWSG | 0.767 ± 0.018 |
| GWGFLGGTVAAV | 0.697 ± 0.035 |
| GWGGLFGCWVCG | 0.656 ± 0.015 |
| GWGIFRISSFGT | 0.713 ± 0.018 |
| GWGPSSAGGAGG | 0.752 ± 0.12 |
| GWGWGSMDLRDR | 0.6919 ± 0.0024 |
| GWIGVFGLFGCG | 0.752 ± 0.083 |
| GWKLGAVRRGVI | 0.706 ± 0.015 |
| GWLGGGVRLGRL | 0.714 ± 0.067 |
| GWRACWVRAPRW | 0.708 ± 0.018 |
| GWRRSWVWDVGG | 0.699 ± 0.027 |
| GWRSGGVYDGNI | 0.6572 ± 0.0027 |
| GWSVDGVVLGAP | 0.728 ± 0.046 |
| GWVFCLFPVGGL | 0.607 ± 0.051 |
| GWVGGCGGGRGI | 0.683 ± 0.0092 |
| GWVHGEDMAVFG | 0.7 ± 0.0049 |
| GWVVSGIFGRCC | 0.689 ± 0.013 |

| Sequence | protein stability index |
| --- | --- |
| GWWLFRSRWWHE | 0.573 ± 0.022 |
| GWWWGGGGAWSG | 0.718 ± 0.071 |
| GYGWGVGGGFGR | 0.691 ± 0.019 |
| GYLEGMVYRESD | 0.689 ± 0.025 |
| GYLNCFGYVWGP | 0.653 ± 0.04 |
| GYSSPPLITIPH | 0.659 ± 0.023 |
| HALFPRAPSPPW | 0.7513 ± 0.0055 |
| HAVRQNDTYKHG | 0.74 ± 0.087 |
| HCPRPRPTCRPP | 0.615 ± 0.1 |
| HCSGGFRCPPLV | 0.6862 ± 0.0046 |
| HDEGLEGLTVVF | 0.675 ± 0.019 |
| HECVRGLSFVLV | 0.668 ± 0.081 |
| HEEPEVPEIQHV | 0.743 ± 0.063 |
| HFSRNYINENVS | 0.716 ± 0.04 |
| HFWGCCRRRCLK | 0.66 ± 0.051 |
| HGKGLKEKRVEG | 0.672 ± 0.041 |
| HGKNLALNEKCW | 0.691 ± 0.034 |
| HGSYYSAVWGKG | 0.684 ± 0.096 |
| HHRVLRCNNPFR | 0.731 ± 0.12 |
| HHSAPARLAFRY | 0.673 ± 0.023 |
| HHTDSLRPTAPH | 0.73 ± 0.054 |
| HISHPTGDVQTP | 0.627 ± 0.083 |
| HKSRHSPKPPFT | 0.6677 ± 0.0026 |
| HLPLLLFHPPLH | 0.637 ± 0.0051 |
| HLPPPPRITVVP | 0.716 ± 0.073 |
| HLPPPPSPSPPP | 0.686 ± 0.012 |

| Sequence | protein stability index |
| --- | --- |
| HLQLCAPISTTD | 0.652 ± 0.07 |
| HLTVSRIRLISK | 0.658 ± 0.079 |
| HLYARHCPPPNR | 0.677 ± 0.052 |
| HNKSGEKKKKEA | 0.697 ± 0.0076 |
| HNPRTCRAPLSL | 0.671 ± 0.0079 |
| HPAAPPPPPPPR | 0.732 ± 0.066 |
| HPAPNPGFHFDR | 0.733 ± 0.065 |
| HPAPVPSAPSDA | 0.678 ± 0.054 |
| HPDPSPPTKPPP | 0.68 ± 0.031 |
| HPFASRSRFTPR | 0.753 ± 0.063 |
| HPGLRLENVNPQ | 0.702 ± 0.014 |
| HPHPPQSTNPYT | 0.677 ± 0.058 |
| HPHVPAPRVPHP | 0.721 ± 0.047 |
| HPNPYTTPGTPA | 0.625 ± 0.0078 |
| HPPPPAPTPSSR | 0.711 ± 0.04 |
| HPPPPPRSLPLP | 0.692 ± 0.08 |
| HPPPPPSPPGLP | 0.6578 ± 0.0013 |
| HPPSSSHTQPPR | 0.683 ± 0.014 |
| HPPTPPPPFPPP | 0.659 ± 0.018 |
| HPSAVPHPPDIV | 0.659 ± 0.046 |
| HPSPTAPPSASN | 0.66 ± 0.022 |
| HPTAILLVPLLL | 0.597 ± 0.029 |
| HQCVIVNFEKYD | 0.669 ± 0.038 |
| HQSSHTRMARSL | 0.723 ± 0.013 |
| HRIHRSLLTGGR | 0.708 ± 0.021 |
| HRQTAKLKRIVI | 0.651 ± 0.093 |

| Sequence | protein stability index |
| --- | --- |
| HRREEDQRPYSR | 0.768 ± 0.021 |
| HRTLPPPPLTVP | 0.579 ± 0.027 |
| HRVRICWVPRSR | 0.674 ± 0.027 |
| HSCLVRSDPPPS | 0.704 ± 0.12 |
| HSPSHPGSPHAC | 0.7 ± 0.033 |
| HSPSKLSSSTAT | 0.681 ± 0.032 |
| HSRSRAEPHHPP | 0.555 ± 0.037 |
| HSTSLLPSGSWF | 0.734 ± 0.016 |
| HSVEPARSSSAM | 0.669 ± 0.07 |
| HTANYILPLIHI | 0.635 ± 0.044 |
| HTRSPVPPPPPS | 0.657 ± 0.0019 |
| HVDGGAVLLEGQ | 0.67888 ± 0.00049 |
| HVGGISSPLTPC | 0.656 ± 0.025 |
| HVGYLIMVYRGR | 0.646 ± 0.072 |
| HVSPSPYPPGYP | 0.697 ± 0.026 |
| HWGRGGRSGGDR | 0.697 ± 0.025 |
| HWHLIKIKLKEK | 0.742 ± 0.043 |
| HWYLRCAVCEGV | 0.651 ± 0.022 |
| HYVQARMRSAVP | 0.636 ± 0.091 |
| IAAVQSGGRVAG | 0.462 ± 0.057 |
| IAGMFSLKFGVP | 0.714 ± 0.082 |
| IAKLLHSPSTFT | 0.688 ± 0.014 |
| IAPLMSSILYPI | 0.685 ± 0.025 |
| ICHLTIFHLRRL | 0.6151 ± 0.0037 |
| ICIKKNTLTKTE | 0.669 ± 0.012 |
| ICLGCFEEYEGV | 0.812 ± 0.077 |

| Sequence | protein stability index |
| --- | --- |
| ICSQLVVAWEGV | 0.714 |
| IDFNWESSTMNI | 0.7438 ± 0.0058 |
| IDGGSAWSAVSL | 0.687 ± 0.018 |
| IEATHKIDRCKD | 0.676 ± 0.0086 |
| IEPTFDGSLCLG | 0.7 ± 0.0094 |
| IESASRSTTGGI | 0.77 ± 0.14 |
| IFPFKDDVPFVS | 0.684 ± 0.0015 |
| IFPNSGKIEVLA | 0.574 ± 0.016 |
| IFPSIPTLLPPS | 0.701 ± 0.041 |
| IFRASTGASYRT | 0.5738 ± 0.0034 |
| IFWGFSFRGGGG | 0.667 ± 0.012 |
| IGCFVEFLYGVW | 0.593 ± 0.023 |
| IGFHGALPGICL | 0.663 ± 0.054 |
| IGLRKGVGIMRP | 0.637 ± 0.12 |
| IGRGAPPGWVGA | 0.704 ± 0.02 |
| IGSLCTPVCQCS | 0.607 ± 0.019 |
| IHLCPPPALRES | 0.703 ± 0.0083 |
| IHRTSVALFFFP | 0.713 ± 0.034 |
| IIAESPWFLIIR | 0.444 ± 0.094 |
| IIEESTRPSPLG | 0.697 ± 0.059 |
| IIFQWVVPTILQ | 0.546 ± 0.019 |
| IIIVGSWSGGGG | 0.663 ± 0.025 |
| IILRSSLLPLLY | 0.548 ± 0.013 |
| IINKKANQKKKE | 0.68 ± 0.032 |
| IIPEPTKFSRQR | 0.7059 ± 0.0026 |
